Source: publication PMC6318259, “Distinct Stabilities of the Structurally Homologous Heptameric Co-Chaperonins GroES and gp31” (Journal of the American Society for Mass Spectrometry, 2018)

B1: gp31 (natural protein, bacteriophage T4)
chain: MSEVQQLPIRAVGEYVILVSEPAQAGDEEVTESGLIIGKRVQGEVPELCVVHSVGPDVPEGFCEVGDLTSLPVGQIRNVPHPFVALGLKQPKEIKQKFVTCHYKAIPCLYK
notes: gp31, co-chaperonin encoded by bacteriophage T4, structural homologue of GroES; heptamer of identical 12 kDa subunits; The printed subunit mass of 12 kDa fits the whole protein; also called gp31 heptamer; source: over-expressed in E. coli strain MC1009, purified as described previously
B2: GroES (natural protein, Escherichia coli)
chain: MNIRPLHDRVIVKRKEVETKSAGGIVLTGSAAAKSTRGEVLAVGNGRILENGEVKPLDVKVGDIVIFNDGYGVKSEKIDNEEVLIMSESDILAIVEA
notes: GroES, co-chaperonin of Escherichia coli; homo-heptamer of 10.4 kDa subunits; The printed subunit mass of 10.4 kDa fits the whole protein; also called GroES heptamer; co-chaperonin GroES; source: over-expressed in E. coli strain MC1009, purified as described previously

Biological target: the molecule itself
Test: native MS; 10 μM monomer in 10 mM aqueous ammonium acetate, pH 6.8; nano-electrospray, modified Orbitrap (Exactive Plus / Q-Exactive EMR); oligomeric state of the protein with itself

Protein | stoichiometry N
B1 | 7
B2 | 7
